Patent US20240424125A1

Columns and labels:
[1] = target: human FRα on cells (human) (UniProt P15328); experiment: flow cytometry on JEG-3 cells (endogenous FRα), negative control; parameters: unit not given here
[2] = target: human FRα on cells (human) (UniProt P15328); experiment: flow cytometry on IGROV-1 cells (endogenous FRα), negative control; parameters: unit not given here

Chain of human FRα on cells (human) (P15328 25-234 limits assumed): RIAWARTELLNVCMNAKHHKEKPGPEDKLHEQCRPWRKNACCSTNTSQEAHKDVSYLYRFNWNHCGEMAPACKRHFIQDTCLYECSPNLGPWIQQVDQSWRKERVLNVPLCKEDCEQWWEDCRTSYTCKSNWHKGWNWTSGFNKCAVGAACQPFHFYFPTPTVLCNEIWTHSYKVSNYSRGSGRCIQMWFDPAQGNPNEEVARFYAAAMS

Human IgG (antibody) was tested, and the Bmax [1] was 144 and the Bmax [2] was 208.
